The assay concerns the target PCM1 (endogenous) [human (endogenous in HEK293A)]. The experiment in a line: GFP-TRAP pull-down and immunoblot, quantified. To be noted: read off a plot, scale: relative protein level normalized to ponceau. For orientation: A western blot detects proteins with antibodies after separation by electrophoresis.

This is an account of results in PMC5526835.

Take “GFP-GABARAP mutant G116A [human] / PCM1 (endogenous) [human (endogenous in HEK293A)] chain 1 G116A”: the response reads like this: (EBSS (ES) for 2 hr) 0.85; (EBSS + BAFA (EB) for 2 hr) 1.2; (full medium (FM)) 1.
